Tests used:
C. apon LDH = target: T1, C. apon LDH (Cyanobacterium aponinum, UniProt K9Z684); assay: X-ray crystal structure of complex; assay type: binding; conditions: 2 mM each
T1 sequence (K9Z684 1-331): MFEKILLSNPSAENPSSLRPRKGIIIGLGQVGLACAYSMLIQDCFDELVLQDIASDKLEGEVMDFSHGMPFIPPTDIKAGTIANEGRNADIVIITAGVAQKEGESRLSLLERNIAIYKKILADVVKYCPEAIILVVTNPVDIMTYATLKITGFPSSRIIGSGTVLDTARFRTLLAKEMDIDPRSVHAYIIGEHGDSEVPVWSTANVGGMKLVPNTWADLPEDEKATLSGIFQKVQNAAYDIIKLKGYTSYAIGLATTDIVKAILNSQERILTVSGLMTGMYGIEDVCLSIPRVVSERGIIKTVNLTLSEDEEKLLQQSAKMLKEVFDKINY

[1] = target: Y190W C. apon LDH (Cyanobacterium aponinum); assay: AUC
SEC-MALS = target: the molecule itself; assay: SEC-MALS

NC(=O)C(=O)O [oxamate]
X-ray crystal structure of complex (C. apon LDH; active site, substrate analogue, with NADH and FBP): active sites of each monomer occupied with a NADH and an oxamate molecule

Y190W C. apon LDH (enzyme)
stoichiometry N [1]: 4

NC(=O)C1=CN([C@@H]2O[C@H](COP(=O)(O)OP(=O)(O)OC[C@H]3O[C@@H](n4cnc5c(N)ncnc54)[C@H](O)[C@@H]3O)[C@@H](O)[C@H]2O)C=CC1 [NADH]
X-ray crystal structure of complex (C. apon LDH; cofactor site, with oxamate and FBP): active sites of each monomer occupied with a NADH and an oxamate molecule

B1: ΔN-ter C. apon LDH (N-terminal sequence … deleted) (domain or fragment, Cyanobacterium aponinum, UniProt K9Z684 21-331, looked up)
chain: RKGIIIGLGQVGLACAYSMLIQDCFDELVLQDIASDKLEGEVMDFSHGMPFIPPTDIKAGTIANEGRNADIVIITAGVAQKEGESRLSLLERNIAIYKKILADVVKYCPEAIILVVTNPVDIMTYATLKITGFPSSRIIGSGTVLDTARFRTLLAKEMDIDPRSVHAYIIGEHGDSEVPVWSTANVGGMKLVPNTWADLPEDEKATLSGIFQKVQNAAYDIIKLKGYTSYAIGLATTDIVKAILNSQERILTVSGLMTGMYGIEDVCLSIPRVVSERGIIKTVNLTLSEDEEKLLQQSAKMLKEVFDKINY
stoichiometry N (SEC-MALS): 2

B2: Cyanobacterium aponinum lactate dehydrogenase, wild type (enzyme)
chain: T1 sequence (K9Z684 1-331)
stoichiometry N (SEC-MALS): 4
